# Experimental data taken from patent US20250002574A1 (SUNSHINE LAKE PHARMA, published 2025).
# B1: full-length chimeric antibody constructed by 5-20E11-5F2 (Example 15) (antibody, human IgG1, kappa, V domains shown)
# VH: QVQLQQSGAELVRPGTSAKISCKASDYTFTNYWLGWLKQRPGHGLEWIGHIYPGGGYTNYNEKFKGKATLTADTSSSTAYMQLSSLTSEDSAVYFCARVRSGNDALDFWGQGTSVTVSS
# VL: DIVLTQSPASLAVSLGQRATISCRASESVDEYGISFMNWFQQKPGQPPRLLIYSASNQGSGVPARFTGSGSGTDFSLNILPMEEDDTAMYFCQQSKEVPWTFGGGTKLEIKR
# notes: also called CPD-1; VH+VL
# B2: MIL-11 mab-02 (antibody, IgG1, V domains shown)
# VH: QVQLVQSGAEVKKPGASVKVSCKASDYTFTNYWLGWVRQAPGQGLEWMGHIYPGGGYTNYNEKFKGRVTMTRDTSTSTVYMELSSLRSEDTAVYYCARVSSGNDALDFWGQGTLVTVSS
# VL: EIVLTQSPATLSLSPGERATLSCRASESVDEYGISFMNWFQQKPGQAPRLLIYSASNQGSGIPARFSGSGSGTDFTLTISSLEPEDFAVYFCQQSKELPWTFGGGTKLEIK
# notes: also called 2E2 full-length antibody
# B3: VH1+VL3 full-length humanized antibody (antibody, human IgG1, kappa, V domains shown)
# VH: QVQLVQSGAEVKKPGASVKVSCKASDYTFTNYWLGWVRQAPGQGLEWMGHIYPGGGYTNYNEKFKGRVTMTRDTSTSTVYMELSSLRSEDTAVYYCARVRSGNDALDFWGQGTLVTVSS
# VL: EIVLTQSPATLSLSPGERATLSCRASESVDEYGISFMNWFQQKPGQAPRLLIYSASNQGSGIPARFSGSGSGTDFTLTISSLEPEDFAVYFCQQSKEVPWTFGGGTKLEIKR
# notes: IgG form, IgG1 Fc; also called VH1+VL3 mAb; CPD-2
# B4: MIL-11 mab-03 (antibody, IgG1, V domains shown)
# VH: QVQLVQSGAEVKKPGASVKVSCKASDYTFTNYWLGWVRQAPGQGLEWMGHIYPGGGYTNYNEKFKGRVTMTRDTSTSTVYMELSSLRSEDTAVYYCARVSSGNDALDFWGQGTLVTVSS
# VL: EIVLTQSPATLSLSPGERATLSCRASESVDEYGISFMNWFQQKPGQAPRLLIYSASNQASGIPARFSGSGSGTDFTLTISSLEPEDFAVYFCQQSKELPWTFGGGTKLEIK
# notes: also called 1F12 full-length antibody
# B5: MIL-11 mab-01 (antibody, IgG1, V domains shown)
# VH: QVQLVQSGAEVKKPGASVKVSCKASDYTFTNYWLGWVRQAPGQGLEWMGHIYPGGGYTNYNEKFKGRVTMTRDTSTSTVYMELSSLRSEDTAVYYCARVSSGNDALDLWGQGTLVTVSS
# VL: EIVLTQSPATLSLSPGERATLSCRASESVDEYGISFMNWFQQKPGQAPRLLIYSGSNEGSGIPARFSGSGSGTDFTLTISSLEPEDFAVYFCNQSKEVPWTFGGGTKLEIK
# notes: also called 1E12 full-length antibody
# B6: VH1+VL4 full-length humanized antibody (antibody, human IgG1, kappa, V domains shown)
# VH: QVQLVQSGAEVKKPGASVKVSCKASDYTFTNYWLGWVRQAPGQGLEWMGHIYPGGGYTNYNEKFKGRVTMTRDTSTSTVYMELSSLRSEDTAVYYCARVRSGNDALDFWGQGTLVTVSS
# VL: EIVLTQSPATLSLSPGERATLSCRASESVDEYGISFMNWFQQKPGQAPRLLIYSASNQGSGIPARFSGSGSGTDFTLTISSLEPEDFAMYFCQQSKEVPWTFGGGTKLEIKR
# notes: IgG form, IgG1 Fc
# B7: VH1+VL2 full-length humanized antibody (antibody, human IgG1, kappa, V domains shown)
# VH: QVQLVQSGAEVKKPGASVKVSCKASDYTFTNYWLGWVRQAPGQGLEWMGHIYPGGGYTNYNEKFKGRVTMTRDTSTSTVYMELSSLRSEDTAVYYCARVRSGNDALDFWGQGTLVTVSS
# VL: EIVLTQSPATLSLSPGERATLSCRASESVDEYGISFMNWYQQKPGQAPRLLIYSASNQGSGIPARFSGSGSGTDFTLTISSLEPEDFAVYFCQQSKEVPWTFGGGTKLEIKR
# notes: IgG form, IgG1 Fc
# Tests used:
# IL-11 [1] = biological target: T1, IL-11 (UniProt P20809 22-199, limits assumed); test: SPR Biacore T200, antibody captured, IL-11 6.25-400 nM
# T1 construct: also called IL-11 protein; IL-11 antigen
# T1 sequence (looked up): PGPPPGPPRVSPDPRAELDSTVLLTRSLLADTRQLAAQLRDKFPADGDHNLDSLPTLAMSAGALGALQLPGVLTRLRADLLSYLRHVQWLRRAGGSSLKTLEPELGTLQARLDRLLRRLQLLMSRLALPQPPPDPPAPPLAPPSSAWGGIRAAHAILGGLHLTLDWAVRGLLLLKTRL
# Procedure: The measure method included the following steps of capturing the full-length humanized antibody at a flow rate of 10 μL/min. […] The binding time was 180 s, and the dissociation time was 600 s. Finally, the chip was regenerated with 10 mM glycine buffer.
# [2] = biological target: T2, recombinant human protein antigen hu-IL-11-His tag (human, UniProt P20809 22-199); test: flow cytometry competition: IL-11-His plus antibody on membrane-IL-11R CHO cells
# T2 construct: also called IL-11-His protein; not shown: His tag
# T2 sequence (looked up): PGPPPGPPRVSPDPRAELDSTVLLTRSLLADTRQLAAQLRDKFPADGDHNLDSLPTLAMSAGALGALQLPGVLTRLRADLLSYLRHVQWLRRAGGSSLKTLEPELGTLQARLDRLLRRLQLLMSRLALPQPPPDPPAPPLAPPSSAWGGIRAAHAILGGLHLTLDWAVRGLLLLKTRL
# Procedure: The inventors constructed a cell line (membrane-IL-11R CHO) that stably expressing IL-11R. […] Then 1.5*10\hat{ }5 membrane-IL-11R CHO cells (100 μL/well) were added and incubated for 1 h at room temperature. […] Then, the plate was incubated at 4° C. for 1 h, centrifuged at 1500 rpm for 5 min, washed three times with PBS, and resuspended cells in 180 μl PBS, and detected by flow cytometry.
# IL-11 [3] = biological target: T1, IL-11; test: BLI (Fortebio), antibody on AHC sensor, IL-11 3.91-125 nM
# Procedure: (§1) The determination method consisted of the following steps: the humanized antibody was captured by an AHC sensor. […] Finally, the sensor was regenerated with 10 mM glycine (pH 1.7) buffer.
# [4] = biological target: T3, IL-11 stably expressed on CHO cells (membrane-IL-11 CHO) (UniProt P20809 22-199); test: flow cytometry on membrane-IL-11 CHO cells, detection with goat-anti-Fc-FITC
# T3 construct: whole, on cells
# T3 sequence (looked up): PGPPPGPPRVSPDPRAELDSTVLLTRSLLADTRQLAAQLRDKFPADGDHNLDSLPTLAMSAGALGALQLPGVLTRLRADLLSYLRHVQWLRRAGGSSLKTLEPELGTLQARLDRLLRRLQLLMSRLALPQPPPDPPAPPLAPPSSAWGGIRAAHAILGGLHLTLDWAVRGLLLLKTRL
# Procedure: The cells were washed 3 times with PBS, and then the flow secondary antibody Goat-anti-Fc-FITC (Abcam, ab98529) was added and detected by flow cytometry. The results were plotted as S-curves in FIG. 11.
# IL-11 [5] = biological target: T1, IL-11; test: BLI (Fortebio), antibody on AHC sensor, IL-11 as analyte
# Procedure: as §1
Kd (IL-11 [1]),koff (IL-11 [1]),kon (IL-11 [1]),EC50 [2],Kd (IL-11 [3]),koff (IL-11 [3]),kon (IL-11 [3]),EC50 (read off the curve) [4],fold increase of affinity against the humanized antibody VH1+VL3 (IL-11 [5]),Binder
6.41 nM,0.000433 s⁻¹,67600 M⁻¹ s⁻¹,7.54 µg/mL,–,–,–,–,–,B1
–,–,–,–,0.242 nM,0.00013 s⁻¹,535000 M⁻¹ s⁻¹,~2 µg/mL,10 fold,B2
9.03 nM,0.000474 s⁻¹,52600 M⁻¹ s⁻¹,10.5 µg/mL,2.84 nM,0.000609 s⁻¹,214000 M⁻¹ s⁻¹,~2 µg/mL,–,B3
–,–,–,–,0.262 nM,0.000152 s⁻¹,580000 M⁻¹ s⁻¹,~2 µg/mL,10 fold,B4
–,–,–,–,1.17 nM,0.000584 s⁻¹,501000 M⁻¹ s⁻¹,~3 µg/mL,–,B5
10 nM,0.000545 s⁻¹,54300 M⁻¹ s⁻¹,12.5 µg/mL,–,–,–,–,–,B6
12 nM,0.000597 s⁻¹,49800 M⁻¹ s⁻¹,11.6 µg/mL,–,–,–,–,–,B7
